Data taken from the DeepSol protein solubility set.

Assay: soluble on expression in E. coli; label from the status in PepcDB or PDB records

Row | Sequence | soluble on expression in E. coli
1 | MISVTLSKIADVLGAEHRGADLTLDTVITDTRKVTPGCLFVALKGERFDAHDFADKAKANGAGALLVSRPLDIDLPQVIVKDTRQAFGQLAAWVRMQVPARVVALTGSSGKTSVKEMTAAILSQCGNTLYTAGNFNNDIGVPITLLRLNHDYDYAVIELGANHQGEIAWTVSLTRPEAALVNNLAAAHLEGFGSLAGVAKAKGEIYTGLPENGIAIMNADNNDWLNWQSIIGDRLVWRFSPNAANSDFTAANIHVTSHGTEFTLQTPMGSIDVLLPLPGRHNIANALAAAALSMAVGATLTAIKAGLAALKAVPGRLFPIQLSENQLVLDDAYNANVGSMTAAVQVLSEMPGYRVLVVGDMAELGAESEACHLQVGEAAKAAGIDRVLSTGKLSQAISHASGVGEHFADKAALIARLHALLQEQPMMTILVKGSRSAAMEDVVHALQEKGSC | not soluble
2 | MISVVGAGGKTSLLFWLAELLQASGRRVLITTTTHMFMPTSHWPVVFCRDPAMLPHASLTSPISFCFHSWKANQGKVQGFTPEAIDALVQRPECDVILIEADGSRGMPLKAPDEHEPCIPKSSCCVIAVMGGHTLGAKVSTENVHRWSQFADITGLTPDATLQLSDLVALVRHPQGAFKNVPQGCRRVWFINRFSQCENAIAQSELLQPLQQHDVEAIWLGDIQEHPAIARRFVNLEHHHHHH | not soluble
3 | MITIITQDQLKTSPSVREDGRAFDELRPLKIEAGILERADGSSYLEFGGNKILVAVYGPREAQIRKLQRPDRAVIRCRYNMAPFSVEERKRPGPDRRSVEISKITAEALRPALILEKFPRSVIDVFIEVLEAEGGTRCAGITAASVALADAGIPMRDMVVACAAGKVGDQVVLDLSEEEDKEGQADVPVAILPRTREITLLQSDGNLTPEEFERALDLAVEGCLRIHEVQKEALRKRYGE | soluble
4 | MITISNEDNMILMSRYPDKYFDLAIVDPPYGILNKTKRGGDYKFNMNEYSQWDIKPDQTYFNELFRVSKNQIIWGGNYFGELWLRSEYNKGFIIWDKNQPETLNNFSMAEMAWSSFDRPSKIFRFSVRKNRNKTHPTQKPVELYQWLLKMYAKQGDKILDTHLGSGTLAIACCIAQFDLTACEINSDYYQQSIEKIKNNLPEARISFGHPGYCIIE | not soluble
5 | MITLNHIAKTYYQGKLAVPILHGISLTIQSGEFVSIMGPSGSGKSTLMNIIGCLDRPTEGEYMLNDVNILTADESKLALIRNEYIGFVFQHFNLLPRLSAVENVELPLVYGGIKKAERRKRALEALGKVGLADRVHHLPNELSGGQKQRVAIARAIANNPTFIMADEPTGALDTKSGEQVMDIFTKLNAEGTTIVMVTHEEEVAAYSSRRIVLRDGKITEDRRCAV | not soluble
6 | MITQRQNAILNLIVEMFTRTHEPVCSKALQDSIDSSSATIRNDMAKLEKMGYLEKAHISSGRMPSRAGFQYFVANSLNLDTIDEQDVYQVVKAFDFEAFKLEDILDAAAKLLAEMTGCTAVIQDVEPTKQRLTGFEIVQLSNHDALAVLTLDESKPVTVQFAIPKNFLSSDLEIFHKLVQGRFLGNTVLDIHYRLRTETPQIVQKYFKITDNVLDLFDYIFSHLFKELIFIEGKVASLAYADLKTYQFLDNPQHVALALRSAISDDEVTKISVAESTEEALENVTVMSHKFLIPYRGTALMHVIGPIEMDYRRMVSLVNVISRVLVMKLTDYYRYLNSNHYEVFLSRNVLKNIERGECLD | not soluble
7 | MITVVGGTFSKLHKGHKALLNTAIDTGNEVVIGLTSDEYVKKNKVYPAIPYSVRYRTLYNYMIKRTNKFRIRQIDDRNGNAPYEKDYEVIVVSPETYPRSLKINEIRISNGLPPLKIIRVPYVLAQDLFPISSTRIINGEID | not soluble
8 | MIVIIDYDTGNTKSISKALDFIGLQNKISSDATEISQADGVILPGVGAYPEAMKELTRRGLNKTLKEIAAGGKPILGVCLGMQLLLESSNEHSFTNGLGLIPGHVEKLPEDPEFAVPHMGWNQLQIKRATPLTKQLDGEYVYYVHSYYANCPEEYIIATSGYSIEVPGMINKGNIYGAQFHPEKSGQIGLEILKGFKEVTYSCKSSQQ | not soluble
9 | MIVLGLEGTAHTISCGIIDESRILAMESSMYRPKTGGIRPLDAAVHHSEVIDTVISRALEKAKISIHDIDLIGFSMGPGLAPSLRVTATAARTISVLTGKPIIGVNHPLGHIEIGRRVTGAIDPVMLYVSGGNTQVIAHVNGRYRVLGETLDIGIGNMIDKFAREAGIPFPGGPEIEKLAMKGTKLLDLPYSVKGMDTAFSGILTAALQYLKTGQAIEDISYSIQETAFAMLVEVLERALYVSGKDEILMAGGVALNRRLRDMVTNMAREAGIRSYLTDREYCMDNGIMIAQAALLMYKSGVRMSVEETAVNPRFRIDEVDAPWITDASRKDYGKAGAESRIEEVSFHGRPAIRKVRISKSYRNSDLDKKIRYERMRNEFTILRKLKEAGVNSPVVYDFDPFSMSITMQKIPGRMMSAELNEGRTDFLNELGIMIAKMHRAGIAHGDLTVNNIIVNDSVFIIDPSMGKVNAEIEDMAVDIYALEDSIKGLGLDSGSVIGQMLKSYRNNFNLADDVLETVSAIRRRHRYV | soluble
10 | MIVPYSVEDILKDGCFLERAEIDRLLDRLRTKKNLILQGPPGTGKTWLAKRLAFALMGQKDDSKVRAVQFHPNLSYEDFVRGWRPTGEGKLSLADGVFMEAIKAASKDPSSKFVVVIEEINRGNPAQIFGELLTLLEAGKRTPNEALELCYPDADGKRRPVHIPENLYVVGTMNIADRSLALVDLALRRRFAFVGLEPRLGQVWRDWVVKECAVDPLEHHHHHH | not soluble
11 | MIVRAINYESLHIDDRFGSIEELKTKISQKYGIPINSQHIIFNGKFYVLGIFDSPLTVSSDTYTNPLGCFGCPDSLFNDLAGNGMTTDEIREYAFPHKDDPAKREGPDLSSVIDTRAIAKRITENRYEDAYKIPNDLSEKEKTIIMESSGEYIDLVLKQIKEILRSNTKY | not soluble
12 | MIYEGKAITVTALESGIVELKFDLKGESVNKFNRLTLNELRQAVDAIKADASVKGVIVSSGKDVFIVGADITEFVENFKLPDAELIAGNLEANKIFSDFEDLNVPTVAAINGIALGGGLEMCLAADFRVMADSAKIGLPEVKLGIYPGFGGTVRLPRLIGVDNAVEWIASGKENRAEDALKVSAVDAVVTADKLGAAALDLIKRAISGELDYKAKRQPKLEKLKLNAIEQMMAFETAKGFVAGQAGPNYPAPVEAIKTIQKAANFGRDKALEVEAAGFAKLAKTSASNCLIGLFLNDQELKKKAKVYDKIAKDVKQAAVLGAGIMGGGIAYQSASKGTPILMKDINEHGIEQGLAEAAKLLVGRVDKGRMTPAKMAEVLNGIRPTLSYGDFGNVDLVVEAVVENPKVKQAVLAEVENHVREDAILASNTSTISISLLAKALKRPENFVGMHFFNPVHMMPLVEVIRGEKSSDLAVATTVAYAKKMGKNPIVVNDCPGFLVNRVLFPYFGGFAKLVSAGVDFVRIDKVMEKFGWPMGPAYLMDVVGIDTGHHGRDVMAEGFPDRMKDDRRSAIDALYEAKRLGQKNGKGFYAYEADKKGKQKKLVDSSVLEVLKPIVYEQRDVTDEDIINWMMIPLCLETVRCLEDGIVETAAEADMGLVYGIGFPLFRGGALRYIDSIGVAEFVALADQYAELGALYHPTAKLREMAKNGQSFFG | soluble
13 | MIYFQTKDDAFFTLASEQEADKPHREHLLDLTLGKGRKRKSSEVLRRGRLAACGLSFVVKNTLGELVGSVRLWHVQFNKGHNEIQHALLLGPLAVAAECSGIGIGSALMRHAIATAKKMGYGAIFLVGDCAFYQRFGFSSSLTKNLAMPGPYEKHRFQALELIPHYLTSCHGILTPSGELEDWNSFQHHKVA | not soluble
14 | MIYVTFTPYGAFGVKDNKEVSGLEDIEYKKLFNEEEIPDIMFKLKTQPNKIADELKEEWGDEIKLETLSTEPFNIGEFLRNNLFKVGKELGYFNNYDEFRKKMHYWSTELTKKVIKSYAQQKDKIIIQVAEAISDLDKTLNLLSERLREWYSLYFPELDHLVNKHEVYANLITKLGKRKNFTKSQLKKILPSKLAGKIAEAAKNSMGGELEDYDLDVIVKFAEEINHLYEKRKELYNYLEKLMNEEAPNITKLAGVSLGARLIGLAGGLEKLAKMPASTIQVLGAEKALFAHLRMGVEPPKHGIIYNHPLIQGSPHWQRGKIARALACKLAIAARADYVGDYIADELLEKLNKRVEEIRRKYPKPPKKKKKEKPKAKKKEKKGKKEKSKKKKDKKKDKKGKKERKVIGKTKSRKLEHHHHHH | soluble
15 | MKAEGLSGGYGDSRLINNVSLTVEKGEFLGILGPNGSGKTTLLHLLTGTLPAKKGRVYLAGKLLADYKPKELAQIMAVLPQKMDQAFTFTVEETVAFGRYPFQTGLFRQQTEKGEAIVQEAMEQTGVADFAQKPIRELSGGEQQRVYLAQALAQQPRILFLDEPTNFLDLAYQKDLLDLIKRLTRESGLAAVSVFHDLNTASLYCDGLMFMKNGTAGPKQKPEYAVTEQSIKAVYDTDVTALVHQSSPKPMIVIQPEKDSVKRQSIPFEALLQAGRDDILLQTEIPLRTLSSTPIGAGFSWSRTLIHKRLPDQPDPIEGLTACLSESGFQLQETCAMASSERLDRFVYRTYEDGELSVFICVQTGFSIWILINGYAADQFFIKALMAAEAERTKVLGDGGGTGDILIAATQTQQSENIEQRLNQLIKKGTAECIKEAAELF | not soluble
16 | MKAIILGIQNILEVLLEDIGILKMESIFLHTNITNIPHSVLYVSLSYYIINPCTSASSNLDDSFS | soluble
17 | MKAKTLGELRRTYPLEKLRRTVKDEARENLREKLRRGERLFPGIHGYEDTVIPALVQAILAKQNFILLGTRGQAKSRILRSLTSLLDEEVPALATELRDNPLHPISPEGKRLLEEAGDDAPIVWLSREDRYVEKLATPDTTVADLLGDMDPIKAARRGTGMADLESIHYGLLPRANRGIFAVNELADLAPKVQVALFNILEEGDVQIRGYPLRLPLDVWLVFTANPQDYTARGRIVTPLKDRIGSEIRTHYPRSLEEGARISAQEAYVPEGVLVPEWVRLSVEAVAFVAREDRRVDQTAGVSQRLAISLLEVVAASAERRALLHGGRPVARPLDLYQGLPAITGKLELEYEGELQGAERVAREIVQRAFGLVLPRYRLRTEPIVAHFEEGNLLTLPEGDVEEALKAMAGVPGLLEAARALAEGEAPEVLLSAGEFVLEGLVGRRKLSRGEATYQAAERPRSYGN | soluble
18 | MKANKVLFITQEITPYVPESEMANMGRFLPQAIQEKGREIRTFMPKWGNVNERRNQLHEVIRLSGMNLIIDDTDHPLIIKVASIQAARMQVYFIDNDDYFQHRQMVADENGVEYKDNDERAIFYARGVLETVKKLRWCPDIIHCQGWMSAFVPLYIKKAYQDEPSFRDSKVVFSVFEDDFKSDCEGNLTEKLMLKGIEKNDVESIVKSPANYEELCKLAIAYSDGVIQNSEKVNENVMKFARESGVPVLDYQPADTYVDAFNEFYDKVWEFEKK | not soluble
19 | MKATLFVREFLLNPRTIGAILPSSDYLAEKMMASVCFEQAKYIIEYGPGTGVFTDKILRYRHPDTVVMIIEHNREFFCILNEKYQDEKNVIIINGSAEHIETYVKEHNIPFVDYIISGLPFASLPLHVSNAILNKARYLLGVKGKFITFQYTQTKVRLFTQFFNQMTVERVYRNLPPAFVFSCYNEKLEHHHHHH | soluble
20 | MKATVSTIDNRGNLGKVLKDVTSKDSIKGYTVAAATAGVAQGLNYNPSAMGLDAKSLQTVAVKVTADALIKTAVYGGSFKDNLASAAAGTAASIGGAYGAGKIGDLGLTEGGLAKIALHAGLGGLLSEAMGGDFRTGAIAGGANELLVGVLGDKLEHHHHHH | not soluble
